This test concerns the target T1, recombinant mouse macrophage mannose receptor rmMMR/CD206 (mouse, UniProt Q61830 20-1388).
T1 construct: macrophage mannose receptor (CD206/MRC1), mouse, recombinant; take the limits from the vendor's data sheet; also called MRC1; mouse recombinant CD206; source: bought: R&D Systems (catalog number 2535-MM-050)
T1 sequence (looked up): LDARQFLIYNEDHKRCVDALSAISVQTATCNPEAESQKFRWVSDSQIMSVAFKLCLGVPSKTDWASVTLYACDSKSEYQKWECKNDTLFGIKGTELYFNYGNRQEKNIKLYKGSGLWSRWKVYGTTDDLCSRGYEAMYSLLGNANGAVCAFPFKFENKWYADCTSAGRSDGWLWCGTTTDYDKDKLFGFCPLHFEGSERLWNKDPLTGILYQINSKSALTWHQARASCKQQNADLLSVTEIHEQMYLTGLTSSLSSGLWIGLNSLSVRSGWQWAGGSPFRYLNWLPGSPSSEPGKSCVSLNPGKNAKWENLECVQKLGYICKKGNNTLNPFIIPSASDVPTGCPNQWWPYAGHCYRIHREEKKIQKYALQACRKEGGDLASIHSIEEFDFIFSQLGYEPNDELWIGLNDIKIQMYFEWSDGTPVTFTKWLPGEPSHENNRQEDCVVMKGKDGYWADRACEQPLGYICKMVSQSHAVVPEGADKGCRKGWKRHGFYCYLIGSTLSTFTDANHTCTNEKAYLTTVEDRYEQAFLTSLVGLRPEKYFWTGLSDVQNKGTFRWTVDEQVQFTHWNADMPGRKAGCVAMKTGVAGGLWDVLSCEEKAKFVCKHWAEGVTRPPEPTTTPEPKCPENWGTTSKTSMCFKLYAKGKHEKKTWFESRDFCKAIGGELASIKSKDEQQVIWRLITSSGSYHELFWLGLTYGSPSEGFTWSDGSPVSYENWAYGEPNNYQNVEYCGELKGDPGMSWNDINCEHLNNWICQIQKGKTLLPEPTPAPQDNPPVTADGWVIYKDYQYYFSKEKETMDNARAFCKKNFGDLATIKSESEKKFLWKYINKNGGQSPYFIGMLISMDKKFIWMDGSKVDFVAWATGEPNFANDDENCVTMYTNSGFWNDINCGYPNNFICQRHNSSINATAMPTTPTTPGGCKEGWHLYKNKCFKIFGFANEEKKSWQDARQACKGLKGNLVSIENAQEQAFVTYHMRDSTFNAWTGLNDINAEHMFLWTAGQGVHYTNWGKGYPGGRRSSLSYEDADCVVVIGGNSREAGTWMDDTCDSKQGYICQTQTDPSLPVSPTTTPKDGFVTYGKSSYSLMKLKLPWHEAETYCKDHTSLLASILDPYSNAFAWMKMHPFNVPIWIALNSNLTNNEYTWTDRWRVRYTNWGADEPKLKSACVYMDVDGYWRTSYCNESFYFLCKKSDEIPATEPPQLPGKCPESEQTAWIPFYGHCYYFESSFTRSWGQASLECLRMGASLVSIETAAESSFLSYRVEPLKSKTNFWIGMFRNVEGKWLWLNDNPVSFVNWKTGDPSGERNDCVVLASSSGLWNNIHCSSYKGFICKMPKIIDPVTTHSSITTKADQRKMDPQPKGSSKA
The test is described as follows: fluorescence polarisation; fluorescence anisotropy in solution, kinetic mode, 50 nM FAM peptide and 1 µM protein (pseudo first-order), 25 °C, 10 mM Na-HEPES, 150 mM NaCl, 1 mM CaCl2, 0.1% Pluronic F-127, pH 7.4. The conditions noted are these: both partners purified.

Where no end group is shown, it is not given here. FAM = 5(6)-carboxyfluorescein; Ahx = NCCCCCC(=O)O

B1: FAM-CSPGAK (peptide)
peptide: {FAM-Ahx}-CSPGAK
notes: also called linear CSPGAK motif; source: synthetic peptide; bought: TAG Copenhagen
For B1, the binding result is given as “binds”.

Values taken from paper PMC5676682, “Precision Targeting of Tumor Macrophages with a CD206 Binding Peptide” (Scientific Reports, 2017).
